According to paper PMC12093266 (2025):

T1: TrnD (Bacillus thuringiensis, fluorescently labeled (in the MST of Fig. 5D only))
T1 chain: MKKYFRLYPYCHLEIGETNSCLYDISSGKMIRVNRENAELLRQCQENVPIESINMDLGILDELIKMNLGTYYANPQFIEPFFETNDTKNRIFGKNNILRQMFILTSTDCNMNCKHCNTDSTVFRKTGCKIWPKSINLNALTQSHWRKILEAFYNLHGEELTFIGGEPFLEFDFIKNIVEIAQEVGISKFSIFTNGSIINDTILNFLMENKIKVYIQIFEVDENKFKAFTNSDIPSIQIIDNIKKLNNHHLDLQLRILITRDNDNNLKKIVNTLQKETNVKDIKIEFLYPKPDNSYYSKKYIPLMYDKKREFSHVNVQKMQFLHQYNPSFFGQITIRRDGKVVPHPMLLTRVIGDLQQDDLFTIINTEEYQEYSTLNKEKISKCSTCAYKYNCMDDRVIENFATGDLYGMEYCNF

B1: TrnC (enzyme)
chain: MSKKRLSMMPFKTDKFSYALDGNTGRVIVADKPTLYIISHFHKFEKEELLKKTKGKFAELHQDYLTTYNYVSSLINMGMFYLSEKEDSDSPIDSKELAINSNQSQLILILTEKCNLRCEYCIYNDKYPKEMGYSDEEMDFETAKKAVDMYYELHMERVKRGHKRFPVITMYGGEPLLKFDLIKKVMEYAKGLMPDTLFYTTTNGTLLSEKMMDYFINNRIIITFSIDGFKENHDRNRVFVNGMPTFERAFKNIKRLQEKKKEQNIEQIISFNCCFDQYTDVYKVAKFFEEHYDLFNPFFVLYNQINPFDTLYFDWCDEQVKTGKWNFDKNNFKNAMQKIEHELYEAETCDDHFQQVAGPLVMKDFVLSIRNKDGQQQITRNSCIPTSKIAVSPDGTLTLCEKMCKKYPIGTVEKGLDWKAVDGVTEKLVRHFNSDSCKYCPIRTMCEACFMFLDENGRIKPSFCKSKKMAVKKNLESYFAKKEKGFDVMKVYNHTSDLDSVKEMVK
modifications: fluorescently labeled with RED-NHS (in the MST experiments where TrnC is the labelled partner)

How the values were obtained:
Assay in all cases: MST
[1] = target: B1
[2] = target: T1, TrnD
[3] = target: E79A mutant of TrnD (Bacillus thuringiensis)

Binder | Kd [1] | Kd [2] | Kd [3]
MEVMNNALITKVDEEIGGNAACVIGCIGSCVISEGIGSLVGTAFTLG [TrnA] | 5410 nM | 4430 nM | –
B1 | – | – | 590 nM
MEVLNKQNVNIIPESEEVGGWVACVGACGTVCLASGGVGTEFAAASYFL [TrnB] | 2470 nM | 2110 nM | –
